Publication PMC2845462

Molecular target: FLAG-HA-Twi1p-WT (Tetrahymena thermophila) (UniProt Q8MXZ9)
Assay: co-IP

Substance: Giw1p (natural protein)
- amount co-precipitated after 100 μg/mL RNase A, against the untreated lysate: 60%
